Laboratory results taken from patent publication EP4782464A1 (Nanjing Legend Biotech Co., Ltd., dated 2026).
One block for each binder: values may come before it.

Assays:
[1] = molecular target: mouse GCC (guanylyl cyclase C, GUCY2C) on cells (mouse) (UniProt Q3UWA6); assay: flow cytometry, B cell clone supernatant on Dubca-mouse GCC.Luc cells
[2] = molecular target: T1, human GCC (guanylyl cyclase C, GUCY2C) on cells (human, UniProt P25092 24-1073); assay: flow cytometry, B cell clone supernatant on Dubca-human GCC.Luc cells
T1 construct: whole, on cells; also called Dubca-human GCC.Luc

[3] = molecular target: human GCC (guanylyl cyclase C, GUCY2C) on cells (human) (UniProt P25092); assay: as above
[4] = molecular target: T1, human GCC (guanylyl cyclase C, GUCY2C) …; assay: flow cytometry on 293T-human GCC.Luc cells
[5] = molecular target: T2, mouse GCC (guanylyl cyclase C, GUCY2C) on cells (mouse, UniProt Q3UWA6 20-1072); assay: flow cytometry on 293T-mouse GCC.Luc cells
T2 construct: whole, on cells; also called Dubca-mouse GCC.Luc
T2 sequence (looked up): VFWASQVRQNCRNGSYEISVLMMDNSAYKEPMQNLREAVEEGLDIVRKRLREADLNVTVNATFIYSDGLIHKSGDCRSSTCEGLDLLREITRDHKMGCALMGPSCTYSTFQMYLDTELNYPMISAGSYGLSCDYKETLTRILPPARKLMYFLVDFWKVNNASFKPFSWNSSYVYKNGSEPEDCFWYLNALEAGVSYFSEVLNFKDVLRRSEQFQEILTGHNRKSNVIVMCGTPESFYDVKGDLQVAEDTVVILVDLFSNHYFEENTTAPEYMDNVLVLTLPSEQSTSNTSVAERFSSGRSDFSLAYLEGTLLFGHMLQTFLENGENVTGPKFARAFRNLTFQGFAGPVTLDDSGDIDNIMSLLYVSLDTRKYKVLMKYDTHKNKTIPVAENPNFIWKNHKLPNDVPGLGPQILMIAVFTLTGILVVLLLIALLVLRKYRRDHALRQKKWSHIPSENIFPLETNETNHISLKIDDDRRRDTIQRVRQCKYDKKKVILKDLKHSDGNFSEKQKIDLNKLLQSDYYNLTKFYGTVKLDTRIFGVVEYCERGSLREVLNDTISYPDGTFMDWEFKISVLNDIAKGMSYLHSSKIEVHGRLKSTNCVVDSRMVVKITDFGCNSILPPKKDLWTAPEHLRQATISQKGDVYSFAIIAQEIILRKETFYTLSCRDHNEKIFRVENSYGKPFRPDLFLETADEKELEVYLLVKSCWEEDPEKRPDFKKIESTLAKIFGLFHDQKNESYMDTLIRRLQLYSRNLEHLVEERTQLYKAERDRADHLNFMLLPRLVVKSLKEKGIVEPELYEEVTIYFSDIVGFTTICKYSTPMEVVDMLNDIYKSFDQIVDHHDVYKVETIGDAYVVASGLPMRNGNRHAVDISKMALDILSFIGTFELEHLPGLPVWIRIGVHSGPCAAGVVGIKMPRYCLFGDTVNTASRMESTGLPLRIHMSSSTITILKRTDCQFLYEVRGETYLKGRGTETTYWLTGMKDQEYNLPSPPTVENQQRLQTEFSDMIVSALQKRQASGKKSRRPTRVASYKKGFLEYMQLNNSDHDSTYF

[6] = molecular target: T3, His-tagged human GUCY2C/Guanylyl cyclase C protein (ACRO GUC-H52H5) (human, UniProt P25092 24-430); assay: ELISA, plate coated with human GCC-his protein at 1 µg/mL
T3 construct: Bought protein; also called human GCC-his protein; human GCC-his; not shown: His tag

[7] = molecular target: T4, His-tagged mouse GUCY2C/guanylyl cyclase C protein (ACRO GUC-M52H3) (mouse, UniProt Q3UWA6 20-433, limits assumed); assay: ELISA, plate coated with mouse GCC-his protein at 1 µg/mL
T4 construct: Bought protein; also called mouse GCC-his protein; mouse GCC-his; not shown: His tag
T4 sequence (looked up): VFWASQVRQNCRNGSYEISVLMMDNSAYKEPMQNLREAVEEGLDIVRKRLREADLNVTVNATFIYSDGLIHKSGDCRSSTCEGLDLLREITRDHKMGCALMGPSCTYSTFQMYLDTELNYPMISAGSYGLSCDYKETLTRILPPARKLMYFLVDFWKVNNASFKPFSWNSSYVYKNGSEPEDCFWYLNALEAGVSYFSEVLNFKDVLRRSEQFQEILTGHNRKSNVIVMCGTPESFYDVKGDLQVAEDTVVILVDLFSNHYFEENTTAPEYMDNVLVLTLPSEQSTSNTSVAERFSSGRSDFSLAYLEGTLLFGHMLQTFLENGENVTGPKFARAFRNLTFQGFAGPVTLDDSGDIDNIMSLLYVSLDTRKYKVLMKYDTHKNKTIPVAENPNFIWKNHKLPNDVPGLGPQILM

T1 sequence (P25092 24-1073): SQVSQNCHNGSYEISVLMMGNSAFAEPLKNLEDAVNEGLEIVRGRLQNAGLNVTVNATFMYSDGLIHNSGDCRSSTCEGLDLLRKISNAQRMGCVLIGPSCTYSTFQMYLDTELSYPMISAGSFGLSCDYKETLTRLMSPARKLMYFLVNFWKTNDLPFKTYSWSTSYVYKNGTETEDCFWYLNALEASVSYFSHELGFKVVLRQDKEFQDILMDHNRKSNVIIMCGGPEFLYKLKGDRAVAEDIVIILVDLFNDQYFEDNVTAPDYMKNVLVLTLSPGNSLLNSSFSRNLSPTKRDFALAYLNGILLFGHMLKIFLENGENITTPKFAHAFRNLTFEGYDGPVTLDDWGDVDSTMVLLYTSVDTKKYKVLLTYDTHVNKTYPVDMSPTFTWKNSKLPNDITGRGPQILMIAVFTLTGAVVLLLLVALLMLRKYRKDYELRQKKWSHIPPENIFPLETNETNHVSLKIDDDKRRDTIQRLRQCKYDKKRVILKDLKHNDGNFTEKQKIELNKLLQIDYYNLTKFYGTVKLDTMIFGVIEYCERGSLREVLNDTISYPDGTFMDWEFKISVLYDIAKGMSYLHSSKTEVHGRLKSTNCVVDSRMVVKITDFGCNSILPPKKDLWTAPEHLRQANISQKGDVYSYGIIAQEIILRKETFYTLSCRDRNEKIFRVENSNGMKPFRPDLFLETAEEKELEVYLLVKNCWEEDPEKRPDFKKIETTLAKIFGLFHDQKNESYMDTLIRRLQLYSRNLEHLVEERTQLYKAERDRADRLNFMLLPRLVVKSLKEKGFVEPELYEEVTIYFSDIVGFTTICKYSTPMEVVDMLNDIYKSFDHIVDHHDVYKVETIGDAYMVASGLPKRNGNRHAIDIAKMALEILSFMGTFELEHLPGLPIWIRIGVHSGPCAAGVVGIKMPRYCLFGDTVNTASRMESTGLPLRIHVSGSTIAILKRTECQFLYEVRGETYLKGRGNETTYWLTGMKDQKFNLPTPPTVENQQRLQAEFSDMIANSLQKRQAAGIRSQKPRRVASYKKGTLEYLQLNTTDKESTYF
Chain of human GCC (guanylyl cyclase C, GUCY2C) on cells (human) (P25092 24-1073): as above
T3 sequence (P25092 24-430 limits assumed): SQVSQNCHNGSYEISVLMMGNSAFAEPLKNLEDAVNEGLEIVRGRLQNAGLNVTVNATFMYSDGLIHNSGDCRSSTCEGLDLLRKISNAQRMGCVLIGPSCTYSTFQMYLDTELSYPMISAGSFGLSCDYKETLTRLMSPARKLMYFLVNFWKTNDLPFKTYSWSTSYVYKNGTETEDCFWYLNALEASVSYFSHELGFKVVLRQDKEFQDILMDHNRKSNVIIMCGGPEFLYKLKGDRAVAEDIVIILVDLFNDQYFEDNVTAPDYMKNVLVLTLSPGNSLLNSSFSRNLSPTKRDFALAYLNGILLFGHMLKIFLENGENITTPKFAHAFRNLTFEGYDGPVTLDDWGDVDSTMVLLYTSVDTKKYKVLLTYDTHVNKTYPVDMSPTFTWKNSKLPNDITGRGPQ

percent of cells bound (flow cytometry) [1]: 99.2%
binding result [2]: no binding
B1: 14C2 (anti-GCC rabbit monoclonal antibody, B cell clone supernatant) (antibody, V domains shown)
VH: QSLEESGGRLVTPGTPLTLTCTASGFSLSNYDMSWVRQAPGKGLEWIGTIEPDGSTWYASWAKGRLTISRTSTTVDLKMTSLTTEDTATYFCVRGAPDYSSNAFNLWGQGTLVTVSS
VL: DVVMTQTPSSVSEPVGGTVTIKCQASQSISSYLAWYQQKPGQPPKLLIYKASTLASGVSSQFRGSGSGTEFTLTISDLECADAATYYCQSTYAASNKLHFAFGGGTDVVVK
notes: Tested as native rabbit antibody in B cell clone supernatant; also called 14C2-B cells; clone 14C2

percent of cells bound (flow cytometry) [3]: 99.9%
percent of cells bound (flow cytometry) [1]: 74.1%
B2: 22G5 (anti-GCC rabbit monoclonal antibody, B cell clone supernatant) (antibody, V domains shown)
VH: QSVEESGGRLVTPGTPLTLTCTVSGIDLSSYAMTWVRQAPGEGLEWIGTINTISTAYYANWAKGRFTISKTSTTVDLKIASPTTEDTATYFCARDHGYYDVWGQGTLVTVSS
VL: AQVLTQTPSSVSAAVGGTVTINCQASQSVYKNNYLSWYQQKPGQPPRLLIYDASTLASGVPSRFKGSGSGTQFTLTISGVQCDDAATYYCLGEFSCSSGDCAAFGGGTEVVVK

EC50 [4]: 0.102 nM
EC50 [5]: 1.23 nM
EC50 [6]: 0.619 nM
EC50 [7]: 0.824 nM
B3: 22G5-Rabbit IgG (antibody, V domains shown)
VH: B2 VH
VL: AQVLTQTPSSVSAAVGGTVTINCQASQSVYKNNYLSWYQQKPGQPPRLLIYDASTLASGVPSRFKGSGSGTQFTLTISGVQCDDAATYYCLGEFSCSSGDCAAFGGGTEVVVKG
notes: Recombinant rabbit IgG (IgG1k) expressed in HD CHO-S cells: 22G5 VH-Rabbit IgG CH1-CH2-CH3 and 22G5 VL-Rabbit IgG CL; also called 22G5-Rabbit IgG antibody; 22G5 antibody

percent of cells bound (flow cytometry) [3]: 65.9%
percent of cells bound (flow cytometry) [1]: 81.8%
B4: 48D5 (anti-GCC rabbit monoclonal antibody, B cell clone supernatant) (antibody, V domains shown)
VH: QSLEESGGRLVKPDETLTITCTVSGIDLSSNAISWVRQAPGEGLEYIGYIGTGGKSFYATWTKGRFTISKTSTTVDLKMTSLTNEDTAMYFCATGNTYLDLWGQGTLVTVSS
VL: AQVLTQTPSSVSAAVGGTVTINCQSSQSVYGADYLAWYQQKPGQPPKLLIYRASNLASGVPSRFRGSGSGTQFTLTISEVQCDDAATYYCQGTYISSDWLNPFGGGTEVVVK

percent of cells bound (flow cytometry) [3]: 95.4%
percent of cells bound (flow cytometry) [1]: 99.7%
B5: 21E1 (anti-GCC rabbit monoclonal antibody, B cell clone supernatant) (antibody, V domains shown)
VH: QSLEESGGRLVTPGTPLTLTCTVSGIDLSSYDMTWVRQAPGKGLEWIGSIGDDGNTYYATWAKGRFTISKTSTTVHLKMTSLTTEDTATYFCARGWSFCKSWGQGTLVTVSS
VL: AQVLTQTASPVSAAVGGTVTISCQSSQSVANNNLAWYQQKPGQPPSPLIYKASTLESGVPSRFSGSGSGTQFALTISGVQCDDAATYYCQGAYRSGIMAFGGGTEVVVR

EC50 [4]: 0.0254 nM
EC50 [5]: 0.284 nM
EC50 [6]: 0.671 nM
EC50 [7]: 0.899 nM
B6: PF0098-Rabbit IgG (antibody, V domains shown)
VH: QVQLQQPGAELVKPGASVKLSCKASGYTFTSYWMHWVKQRPGQGLEWIGEIKPSNGLTNYIEKFKNKATLTVDKSATTAYMQLSSLTAEDSAVYYCTRTITTTEGYWFFDVWGAGTTVTVSS
VL: DIVLTQSPASLAVSLGQRATISCRASESVDYYGTSLMQWYQQKPGQPPKLLIYAASNVESGVPARFSGSGSGTDFSLNIHPVEEDDIAMYFCQQTRKVYTFGGGTKLEIKG
notes: also called PF0098-Rabbit IgG antibody

percent of cells bound (flow cytometry) [3]: 95.1%
percent of cells bound (flow cytometry) [1]: 95.4%
B7: 25E2 (anti-GCC rabbit monoclonal antibody, B cell clone supernatant) (antibody, V domains shown)
VH: QSVEESGGRLVTPGTPLTLTCTVSGIDLNKHAMGWVRQAPTKGLEWIGTIYVSTNTAYASWAKGRFTISKTSSTTVDLKMTSLTTEDTATYFCARGGGSSYYTGELYFNLWGQGTLVTVSS
VL: AYDMTQTPASVEVAVGGTVSIKCQVSQSIGSWLAWYQQKPGQPPKLLIYSASTLASGVSSRFKGSGSGTEFTLTISDLACVDAATYYCQSYSSASTTAFGGGTEVVVR
